Test results: patent US11419921B2, “Methods of treating neurological disorders” (EnClear Therapies, Inc., priority 2018, dated 2022)

System: (GR)10
Assay: Cleavage of (GR)10 by enzymes in solution (PBS with CaCl2 and MgCl2), LC/MS of GR repeats
Type: biochemical
Details: for (GR)1 concentration / (GR)2 concentration / (GR)4 concentration / (GR)6 concentration / (GR)8 concentration / (GR)10 concentration: (GR)10 50 μM; for (GR)1 / (GR)2 / (GR)3 / (GR)4 / (GR)5 / (GR)6 / (GR)8 / (GR)10: PBS, normalized
Description: • (GR)10 dipeptide (also (GR)8, (GR)6, (GR)4, (GR)2) were synthetized by solid-phase synthesis by CanPeptide; All peptides are uncapped and supplied lyophilized with TFA as counter ions. Purity was always above 95%. • Buffer: PBS buffer containing CaCl2 and MgCl2. • Stock solution of enzyme (e.g., 10 mg/mL) (prepared per manufacturer instructions) in PBS. Activators added as necessary. • Working solution of protein of the desired concentration (e.g., 100 μg/mL) prepared immediately before use by diluting the stock solution (e.g., 5 μL of 10 mg/mL stock solution) in PBS buffer (e.g., in 495 μL of PBS). Exemplary Procedure Using 50 μM Concentrations of (GR)10
25 μL of a 100 μM solution of (GR)10 was added to each well of a 96-well plate. 25 μL of a solution of enzyme (two times the desired final enzyme concentration) was added, and the plates were incubated at room temperature. At the specified time points (5 minutes, 10 minutes, 30 minutes, 60 minutes, and 180 minutes) 2.5 μL of a 10% TFA solution were added to stop the reaction. For the time 0 min well, the TFA was added to the well before addition of the enzyme. After last time point, all samples were further diluted with 150 μL of dilution solution. The quenched reaction mixtures were analyzed by LC/MS to determine the concentration of GR repeats of different lengths.
The chromatography and mass spectrometry conditions utilized are shown in Table 2 and Table 3, respectively.

B1: Clostripain: sulfhydryl protease cleaving at the C-terminus of arginine residues; in Table 23 also immobilized on agarose resin (protein)
chain: NKNQKVTIMYYCDADNNLEGSLLNDIEEMKTGYKDSPNLNLIALVDRSPRYSSDEKVLGEDFSDTRLYKIEHNKANRLDGKNEFPEISTTSKYEANMGDPEVLKKFIDYCKSNYEADKYVLIMANHGGGAREKSNPRLNRAICWDDSNLDKNGEADCLYMGEISDHLTEKQSVDLLAFDACLMGTAEVAYQYRPGNGGFSADTLVASSPVVWGPGFKYDKIFDRIKAGGGTNNEDDLTLGGKEQNFDPATITNEQLGALFVEEQRDSTHANGRYDQHLSFYDLKKAESVKRAIDNLAVNLSNENKKSEIEKLRGSGIHTDLMHYFDEYSEGEWVEYPYFDVYDLCEKINKSENFSSKTKDLASNAMNKLNEMIVYSFGDPSNNFKEGKNGLSIFLPNGDKKYSTYYTSTKIPHWTMQSWYNSIDTVKYGLNPYGKLSWCKDGQDPEINKVGNWFELLDSWFDKTNDVTGGVNHYQW
Enzyme 2.5 μg/mL, 0 min
  (GR)1 concentration: BLQ
  (GR)2 concentration: BLQ
  (GR)4 concentration: BLQ
  (GR)6 concentration: BLQ
  (GR)8 concentration: 0.7 µM
  (GR)10 concentration: 39.7 µM
Enzyme 2.5 μg/mL, 5 min
  (GR)1 concentration: 25.6 µM
  (GR)2 concentration: 8.7 µM
  (GR)4 concentration: 6.7 µM
  (GR)6 concentration: 3.6 µM
  (GR)8 concentration: 2.2 µM
  (GR)10 concentration: 5.4 µM
Enzyme 2.5 μg/mL, 10 min
  (GR)1 concentration: 35.3 µM
  (GR)2 concentration: 14.0 µM
  (GR)4 concentration: 9.8 µM
  (GR)6 concentration: 4.3 µM
  (GR)8 concentration: 1.8 µM
  (GR)10 concentration: 2.3 µM
Enzyme 2.5 μg/mL, 30 min
  (GR)1 concentration: 72.9 µM
  (GR)2 concentration: 36.8 µM
  (GR)4 concentration: 7.5 µM
  (GR)6 concentration: 1.4 µM
  (GR)8 concentration: BLQ
  (GR)10 concentration: BLQ
Enzyme 2.5 μg/mL, 60 min
  (GR)1 concentration: 148.6 µM
  (GR)2 concentration: 62.1 µM
  (GR)4 concentration: 1.9 µM
  (GR)6 concentration: BLQ
  (GR)8 concentration: BLQ
  (GR)10 concentration: BLQ
Enzyme 2.5 μg/mL, 120 min
  (GR)1 concentration: 325.0 µM
  (GR)2 concentration: BLQ
  (GR)4 concentration: BLQ
  (GR)6 concentration: BLQ
  (GR)8 concentration: BLQ
  (GR)10 concentration: BLQ
Enzyme 10 μg/mL, 0 min
  (GR)1 concentration: BLQ
  (GR)2 concentration: BLQ
  (GR)4 concentration: BLQ
  (GR)6 concentration: BLQ
  (GR)8 concentration: 0.6 µM
  (GR)10 concentration: 37.9 µM
Enzyme 10 μg/mL, 5 min
  (GR)1 concentration: 99.0 µM
  (GR)2 concentration: 51.8 µM
  (GR)4 concentration: 5.4 µM
  (GR)6 concentration: 0.6 µM
  (GR)8 concentration: BLQ
  (GR)10 concentration: 0.8 µM
Enzyme 10 μg/mL, 10 min
  (GR)1 concentration: 145.9 µM
  (GR)2 concentration: 62.2 µM
  (GR)4 concentration: 1.8 µM
  (GR)6 concentration: BLQ
  (GR)8 concentration: BLQ
  (GR)10 concentration: BLQ
Enzyme 10 μg/mL, 30 min
  (GR)1 concentration: 336.9 µM
  (GR)2 concentration: BLQ
  (GR)4 concentration: BLQ
  (GR)6 concentration: BLQ
  (GR)8 concentration: BLQ
  (GR)10 concentration: BLQ
Enzyme 10 μg/mL, 60 min
  (GR)1 concentration: 340.3 µM
  (GR)2 concentration: BLQ
  (GR)4 concentration: BLQ
  (GR)6 concentration: BLQ
  (GR)8 concentration: BLQ
  (GR)10 concentration: BLQ
Enzyme 10 μg/mL, 120 min
  (GR)1 concentration: 355.8 µM
  (GR)2 concentration: BLQ
  (GR)4 concentration: BLQ
  (GR)6 concentration: BLQ
  (GR)8 concentration: BLQ
  (GR)10 concentration: BLQ
In solution - 5 min reaction
  (GR)1: 82.6 µM
  (GR)2: 106.2 µM
  (GR)3: 39.1 µM
  (GR)4: 28.6 µM
  (GR)5: 12.7 µM
  (GR)6: 8.4 µM
  (GR)8: 0.0 µM
  (GR)10: 12.4 µM
In solution - 60 min reaction
  (GR)1: 383.2 µM
  (GR)2: 0.0 µM
  (GR)3: 0.0 µM
  (GR)4: 0.0 µM
  (GR)5: 0.0 µM
  (GR)6: 0.0 µM
  (GR)8: 0.0 µM
  (GR)10: 0.0 µM
